# From the DeepSol protein solubility set
# Assay: soluble on expression in E. coli; label from the status in PepcDB or PDB records
row,Sequence,soluble on expression in E. coli
1,SVRCYVEIVEKLPERRPDPATIEGCAQLKPNNYLLAWHTPFNEKGSGFGAATKAMCIGLRYWKPERLETLIEVSVECGRMTHNHPTGFLGSLCTALFVSFAAQGKPLVQWGRDMLRAVPLAEEYCRKTIRHTAEYQEHWFYFEAKWQFYLEERKISKDSENKAIFPDNYDAEEREKTYRKWSSEGRGGRRGHDAPMIAYDALLAAGNSWTELCHRAMFHGGESAATGTIAGCLFGLLYGLDLVPKGLYQDLEDKEKLEDLGAALYRLSTEEK,soluble
2,MSEKTMGPRQSRPGILTPAQERVAQAIARLGPEISLTDISRMVGGHPNASRQHIKTLENSGYISATQKRGAAGRPAQLYSITPEGLRALAGNATLIAHTSFVRSLSHYIANQPHPEERALALGSQMVRDEGPLPGATKVDKVVNLLEKYGFAPTQAGTEIQLLTCPVLDSAVRHPEVVCTMHRGILNEITGNNTTFILEPFARPGMCVIRTVSPTANPTQT,not soluble
3,MSLTIPDSTPSDFSHEFFGSLDPQALAHPDSIKWQHYGEGVIPMWIADMDFPVAPPILRALEDRLTRGLGYPLGRDDRLIADLQTKWASQGLTDVPADGIHFTPSVVPGLYAGVHGLTEPGDRVVTMTPIYHPFHLAINDLGREVAAAPLREGDTRWEIDWDALERAAEGARLLMLCHPHNPCGRVWDADELARLRELVLAHDLYVISDELHADLRFTDAPFEAFAADPRVRDRTLTVTGPCKAFNTAGLGIGVMVTHDPELLARVQRRVAGLGGHPSALSFTMWRVALEDGGPWLARTVEYLRGNRDFMTAFLRERLPWVRFTVPEATYLAWLDLREHPEAGRIQEFLLEEAKVAVHNGPTFAPGEQGAAYQGFIRVNFATSRAILTEALERMARALDTRQEGHHHHHH,soluble
4,MAGASETYTHTLTDVPIDIKYDSDDYFISGYSYGADVYMSSVNRVKLDSEINEDTRKFKVVADLTNMKPGTHKVPLKVVNLPSGVNATVSPTTITVTMGKKKTLEHHHHHH,soluble
5,MSSDIQQIRIGLTNNHPCSYLADRMERVAVAIDPQMQTPETYEVLMANGFRRSGDTIYKPHCDHCQSCQALRIPAPDFVPSKSQKRLLKLLSQEFHWQLKPELDEDWYTLYARYIFARHRHGSMYPPNKMEFAKFARAKWLNTQYLHLYQGEKLVAIAVTDLLPNSASAFYTFYDPDISISLGTLAVLCQLNYCQQTKKQWLYLGYQIDECPAMNYKVRFNPHQRLVNQRWRGLEHHHHHH,soluble
6,MKHSNKPYDSFQDELEDYIKVQKARGLEPKTCFRRMRGEYLESCGYREEFDSRPRYRMFDQRLPSGTNHSYPRSCSSSQTEDRVPQWLPAHDKIRLNSLSYCQFTRDGFSEKPVPLNLSQQEYNCGSYSVESVVHKRLCSEHSTIDPQVSHRQMHQKRKKHVEEGREKQEERPKHERKRSSEEMDLNKHRSIQRKKTKAETETVQDGTEKLKNRKEKKTRDVSSKKEDRKRRKEKKEQGEERTEEEMLWDQSILGF,not soluble
7,MGSDKIHHHHHHMNSGPVSVACAQGSHGGDVVRLAARLGISPTDILDFSSNANSLCDDLTRQVLAQTGYAHSHYPDSECTGLRHRIAGFEETQPERILAGNGSSELIYLAMHSLKPRRVLLIAPVFSEYVRACQACGADYRLFETDPYDGFDIPERHICRLHDAVTAYRPDMAVICAPSNPACTDYSRMDDILYALDCPHVLVDNSYLDFLWGTPAYSRHGMAAYAGCTRTETKVISLRSMTKFFYCTGVRLGYCHADEQTIERMNRCKTPWSVWHAAQQAGMAFLDRMDEYRLRLPAMRAEKTAFAGALRNTGIFDNNLVLEGANFVTARLQRPAKAATVYTELLQHGILVRLCDNIPGMPQGFIRMQVREKKAWSRLTAILGTLDAE,not soluble
8,MRVLLVTGKLAEEMVRKYGKGADVKVYNIDIAAFITPSMLENEDFSGYDLVLVPGLTYSHNWEDFERRKGVKVRLGPIHAYDLQHVLKLIGKVEFSHKIPACRLVESLRAEETLREIDALDEDCAFEIGGVKVGGSSRMKVVAEIASFCDFDDLRAKIDHYTESGADIIDIGVPLEFDKEWLHKTLKIAVDHSKLPLSIDTFSSKAIEIAVKHGVDMVMSISMDNLKALDLIENQAVVVVERDIDGLLNLVERVGEKVERVIADPILDPPLKVAESIGRYAEFRRRDEKTPLLFGAGNVTELSDADSIGINALLAFIAEELKCNLLFTTEASPKTFGSVRELNIASYLAKAAKIRNSPPKDAGVSLLALKEKVRYEERVELDDFVRAEETREFVRDPLGDFIIQVVDGKIVCKHDRMTIVGEKAKEVADTAIKNNLLSRLDHAAYLGRELMKAEIAALLKKSYIQDRELNFGFYQK,not soluble
9,MSTPTLSPSTEKLIPIIGLSVSGTFSPRPIATTAHSVVFKVDSQLYRREVIVKIVDRKSIPANVAEKFFPRELEITMKVRHPHIARCLAITRPAPTKFVIISDYYERGTLLEWILQKKRLKEHPLAATLFRQLIEAINYLHKRGIVHRDVKLENILIDGNGDIKLIDFGFARHIERRERSRSFCGTQPYTCPQITKYRPYEAYAADYYACGIVLFTMVTGKWPNMTENPNIYPEGYPSRSCRKLVSSLLDGNEMSRAGYDECVNSEWMGVHPVWMFANHAYFYEEVRGEDPNSSNCEMSEI,not soluble
10,MGHHHHHHSHMFGCLVAGRLVQTAAQQVAEDKFVFDLPDYESINHVVVLMLGTIPFPEGMGGSVYFSYPDSMDASMALLGFVTNGKPSAIFKISGLKSGEGSQHPFGAMNIVRTPSVAQIGISVELLDSMAQQTPVGNAAVSSVDSFTQFTQKMLDNFYNFASSFAVSQAQMTPSPSEMFIPANVVLKWYENFQRRLAQNPLFWKT,not soluble
11,MLHAKIETLGVDPQNGSVVVLLRTENDKLLPIVIGPLEAHHIVVALQGEKPPRPLTPDLLLSVMEMLQAKLKRVEIVDLRDGTFYARLILEHRGIELEVDARPSDAMALALRAGAPILVAEEVVEKAGVEEANIRPHGAAEA,soluble
12,MSLASVDPYEHLNAWVSAIETSGVLVLATRGGKVAIDEMRGMCLYFDELPVIVLNGSDHPRPRLFSLLHEFVHVVLHTEGLCDVIADAHPSTQDRSLEARCNAIAAAVLMPADVVRARPEVIVRSETPSSWDYESLRPVAAHFGVSAEAFLRRLSTLGIVPVEVYRQRRAEFIAAHEDEAERARSAGGGNWYRNTVRDLGKGYVRAVTDAHRRRVIDSNTAAIYLDAKVSQIPKLAESAELRSVEGHHHHHH,not soluble
13,SNAYSIALIIPSLFEKACAHFLPSFQQALNKAGYQLLLGYSDYSIEQEEKLLSTFLESRPAGVVLFGSEHSQRTHQLLEASNTPVLEIAELSSKASYLNIGVDHFEVGKACTRHLIEQGFKNVGFIGARGNHSTLQRQLHGWQSAMIENYLTPDHFLTTHEAPSSQLGAEGLAKLLLRDSSLNALVCSHEEIAIGALFECHRRVLKVPTDIAIICLEGSSMGEHAYPSLTSAEFDYERMGTKAAEKLLHAIKGEPEERPTSMGFKLKRRASTAIN,soluble
14,MGSDKIHHHHHHPEKKVATSVPAPQKMDGEQLFEDMQLGGVVNFLAFRQAVAGYNLIKQKSKSILTLIDFTKPSTEKRLFVFDMEQKKMLYSSVVSHGKNSGENYATSFSNEVGSYKSSLGFYLTGNTYQGRNGYSLLLDGLEKGINDRARERAIVVHGAAYANPSVCKSGRLGRSFGCPALPQALTKPIINTIKGGSVLFIYANNKEYMAKSSILPNQTSQELFTEACESEQTVSVHL,not soluble
15,MGSDKIHHHHHHMNSNPFVSVVMSVYNGGEFLKDAINSILSQSYKNFEFIIINDGSSDNFSEILELYDDERIKVLNNQENKGLVYSLNRGLLESIGKYIVRMDADDISLPNRIEKQVEFMEREPEVGVCGSYIEIFGDTIKRKVQRFPSNVNVNEAFLLFSTCLAHPSVIIRKSIVDKYKLRYDDRYLHAEDYAIWCQAVKYTKISNIREVLLKYRILESSVTRQANKNFQSRFDVHKSIYKDIFRNKGIDYTEKELYLHFIISDNNRFRNQALTIRPSEINAHLTKILSHYRGASNYKYIAFLVNKRGLSLSRWYSESRGFYFIMYLFKFLYYKIQIKK,not soluble
16,MSNPVTITEAAALHIKDMMKEHEEENAFLRVGVKGGGCSGLSYGMGFEHEKSESDSVFDQHGITVLVDKESLDIMNGTVIDYKQSMLGGGFTIDNPNAIASCGCGSSFRTATNAGKPEEC,soluble
17,MVPVVALVGRPNVGKSTLFNRLTRTRDALVADFPGLTRDRKYGRAEIEGREFICIDTGGIDGTEDGVETRMAEQSLLAIEEADVVLFMVDARAGLMPADEAIAKHLRSREKPTFLVANKTDGLDPDQAVVDFYSLGLGEIYPIAASHGRGVLSLLEHVLLPWMEDLAPQEEVDEDAEYWAQFEAEENGEEEEEDDFDPQSLPIKLAIVGRPNVGKSTLTNRILGEERVVVYDMPGTTRDSIYIPMERDGREYVLIDTAGVRKRGKITDAVEKFSVIKTLQAIEDANVVMLVIDAREGISDQDLSLLGFILNSGRSLVIVVNKWDGLSQEVKEQVKETLDFRLGFIDFARVHFISALHGSGVGNLFESVREAYDSSTRRVGTSMLTRIMTMAVEDHQPPLVRGRRVKLKYAHAGGYNPPIVVIHGNQVKDLPDSYKRYLMNYFRKSLDVMGSPIRIQFKEGENPYANKRNTLTPTQMRKRKRLMKHIKKNK,not soluble
18,MMIIVGVDAGGTKTKAVAYDCEGNFIGEGSSGPGNYHNVGLTRAIENIKEAVKIAAKGEADVVGMGVAGLDSKFDWENFTPLASLIAPKVIIQHDGVIALFAETLGEPGVVVIAGTGSVVEGYNGKEFLRVGGRGWLLSDDGSAYWVGRKALRKVLKMMDGLENKTILYNKVLKTINVKDLDELVMWSYTSSCQIDLVASIAKAVDEAANEGDTVAMDILKQGAELLASQAVYLARKIGTNKVYLKGGMFRSNIYHKFFTLYLEKEGIISDLGKRSPEIGAVILAYKEVGCDIKKLISD,soluble
19,PLKIGPPGHRYAFPLYSSKNLERDDLRGIRRLVIVLHGVKRNAASIHGTVTALFAANPERAEDTLVIAPKFASAIDAGFAAMPAWRRASWEDGELSMQARGRPAPVSSLQVLDDLLRELSDSSRLPALRTIVLAGHSGGAQLVQRYAVLNSLDETL,not soluble
20,MAEIHYLISDASKKVDVEAHVLRYWEEELELPIPRNDMGHRYYTDFHIRLFKQVKVLKEKGYQLKAIKTALAKSLQDGKVIIPSEVLEEDVIAALKETGIGEQDMKEQKGNENKNGEKRADEKVKDGQACEGGGEAGLTALDKDSVEALLAGEKMEQFQKVMNHIIGRAMEENSEKLSQDISYLVHDKLMKEMEYLMRVSDEREEERFKQLDEVIRAYQRDNQGRAEAAASVTGFPFFRFKKKKFGRNGNKL,not soluble
